Test results taken from publication PMC4154765, “Crystal Structure of the Mineralocorticoid Receptor DNA Binding Domain in Complex with DNA” (PLoS ONE, 2014).

How the values were obtained:
MR DBD [1] = biological target: T1, MR DBD (human, UniProt P08235 593-671); test: X-ray crystallography; DBD dimer on two half sites; 2.4 A; FP: 100 mM NaCl, 20 mM Tris-HCl pH 7.4, 5% glycerol, 10 nM FAM-GRE; temperature not stated; details: protein: recombinant; tags: 6xHis (pMCSG7 vector); chain copies: 2
GR DBD = GR DBD (UniProt P04150 417-506); test: fluorescence polarization; 10 nM DNA; slight positive cooperativity; endpoint called affinity; FP: 100 mM NaCl, 20 mM Tris-HCl pH 7.4, 5% glycerol, 10 nM FAM-GRE; temperature not stated; details: protein: recombinant; chain copies: 2; label: 5' 6-FAM on strand 1; blunt
MR DBD [2] = biological target: T1, MR DBD; test: as above; details: protein: recombinant; tags: 6xHis (pMCSG7 vector); chain copies: 2; label: 5' 6-FAM on strand 1; blunt
[3] = biological target: the molecule itself; test: crystal structure; MR DBD crystallised with a 17 base pair GRE DNA, 2:1 molar ratio of DNA to protein, protein at 3.0 mg/ml; hanging-drop vapor diffusion, 0.2 M sodium malonate, 12% PEG 3350; the DBD dimer is seen bound to the two DNA half sites

Chain of GR DBD (P04150 417-506): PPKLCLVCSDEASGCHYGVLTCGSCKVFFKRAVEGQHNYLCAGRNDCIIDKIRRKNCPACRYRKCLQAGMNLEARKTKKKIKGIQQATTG

B1: GRE 17 bp (crystal) (dsDNA)
DNA 1: GTCTTGTCTCACAAGAC
DNA 2: GTCTTGTGAGACAAGAC
- binding result (MR DBD [1]): binds

B2: FAM-GRE (dsDNA)
DNA 1: CCAGAACAGAGTGTTCTGA
DNA 2: TCAGAACACTCTGTTCTGG
- Kd (GR DBD): 53 nM
- Kd (MR DBD [2]): 55 nM

B3: human mineralocorticoid receptor DNA binding domain (domain or fragment, UniProt P08235 593-671, looked up)
chain: STGSSRPSKICLVCGDEASGCHYGVVTCGSCKVFFKRAVEGQHNYLCAGRNDCIIDKIRRKNCPACRLQKCLQAGMNLG
notes: Cloned into pMCSG7, 'which contains a 6X-histidine tag'; Two copies of the chain form the dimer on the GRE DNA in the crystal; also called MR DBD; MR
- binding result [3]: binds
